Measurements reported in EP1951759B1 (ELI LILLY AND COMPANY, dated 2010).

Biological target: T1, soluble EGFR (sEGFR): amino acids 1-619 of mature human EGFR with (Gly)4Ser linker and (His)6 tag (human, UniProt P00533 25-643, biotinylated with Sulfo-NHS-LC-Biotin (B-sEGFR) in the filter lift and the capture ELISA)
T1 construct: range 25-643; also called B-sEGFR; biotinylated sEGFR
Test: KinExA; calculated as Kd x kon

B1: full-length monoclonal antibody VH4.15 (antibody, V domains shown)
VH: QVQLQESGPGLVKPSETLSLTCTVSGFSLTNYGVHWIRQPPGKGLEWIGNIWSGGNTDYNTPFTSRVTISVDTSKNQFSLKLSSVTAADTAVYYCARALDYYDYDYAYWGQGTMVTVSS
VL: EIVLTQSPDFQSVTPKEKVTITCRASYSIGTNIHWYQQKPDQSPKLLIKYASESISGVPSRFSGSGSGTDFTLTINSLEAEDAATYYCQQNNEWPTSFGGGTKVEIK
notes: Full-length antibody with human Fc
Q: With B1 as the binder, how does the koff read?
A: 1.46e-06 s⁻¹
